Assay results published in paper PMC9021867 (Cell, 2022).

Biological target: Biotinylated human IL-2Rβ ECD (Homo sapiens, UniProt P14784, biotinylated)
Assay: SPR

Sequence of Biotinylated human IL-2Rβ ECD (P14784 27-240): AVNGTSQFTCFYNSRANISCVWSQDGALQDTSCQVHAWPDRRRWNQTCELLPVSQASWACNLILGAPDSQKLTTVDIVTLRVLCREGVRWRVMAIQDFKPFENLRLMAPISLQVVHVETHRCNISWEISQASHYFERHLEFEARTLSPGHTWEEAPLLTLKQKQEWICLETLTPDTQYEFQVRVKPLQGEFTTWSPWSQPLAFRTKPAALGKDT

Row | Binder | binding result
1 | β-VHH4 (VHH) VHH: QVQLQESGGGSVQAGGSLRLSCAASGSTSCSSVMRWYRQAPGKEREFVSSINSDRRTVYADSVKGRFTISQDNAKSTLYLQMNSLKAEDTATYYCQRELYGDSWCQGNYWGQGTQVTVSS | binds
2 | β-VHH1 (VHH) VHH: QVQLQESGGGSVQAGGSLRLSCVTSGYTYSSANMAWFRQAPGKEREGVAIITPSGRATTYADSVKGRFTISRDNAANTLYLQMNSLKPEDTAMYYCAADTPPYSGLWYAERTYNYWGQGTQVTVSS | binds

Other lines, results leading:

Row | binding result | Binder
3 | binds | β-VHH6 (VHH) VHH: QVQLQESGGGSVQAGGSLRLSCAASSYTISSVCMGWFRQAPGKEREGVAGIAPDGSTGYGDSVKGRFTISKDNAKNTLYLQMNSLKPEDTAMYYCAAASPGRCFLPRTALEPALYYNWGQGTQVTVSS
4 | binds | β-VHH3 (VHH) VHH: QVQLQESGGGSVQAGGSLRLSCTASGFTFDDEDMGWYRQAPGNECELVSSIGSLGRRYYADSVKDRFAISQDNAKNTVYLQMNSLKPEDTAVYYCAATKGGSWLDSILASCQGAFGYWGQGTQVTVSS
